{"source": "paper PMC5727127", "about": "“H3K14ac is linked to methylation of H3K9 by the triple Tudor domain of SETDB1” (Nature Communications, 2017)", "key": {"[1]": {"target": "3TD of SETDB1, W358A mutant, as used in ITC and crystals (UniProt Q15047)", "assay": "ITC; 25 °C, VP-ITC, 20 mM Tris/HCl pH 7.0, 150 mM NaCl; protein 50 to 100 μM, ligand 1–2 mM; one-site binding model"}, "[2]": {"target": "H3K9me1/K14ac peptide in solution (ITC)", "assay": "ITC", "conditions": "read off a plot"}, "[3]": {"target": "H3K9me2/K14ac peptide in solution (ITC; crystal with W358A), limits not stated", "assay": "ITC", "conditions": "read off a plot"}, "[4]": {"target": "H3K9me3/K14ac peptide in solution (ITC; crystals)", "assay": "ITC", "conditions": "read off a plot"}}, "data": [{"substance": "H3K9me2/K14ac peptide in solution (ITC; crystal with W358A), limits not stated", "values": [{"measurement": "fold reduction of affinity against wildtype 3TD", "setting": "[1]", "value": 18, "unit": "fold"}]}, {"substance": "H3K9me3/K14ac peptide in solution (ITC; crystals)", "values": [{"measurement": "fold reduction of binding against wildtype 3TD", "setting": "[1]", "value": 2, "unit": "fold"}]}, {"substance": "triple Tudor domain (3TD) of SETDB1, wildtype, as used in solution (ITC, NMR, crystals) (from UniProt Q15047) Y268A", "values": [{"measurement": "ratio to parent", "setting": "[2]", "value": 1.5}, {"measurement": "ratio to parent", "setting": "[3]", "value": 1.1}, {"measurement": "ratio to parent", "setting": "[4]", "value": 0.18}]}]}
